Measurements: publication PMC5970177

Target: αvβ3 integrin (human (endogenous in U87MG)) (UniProt P06756)
Chain of UniProt P06756 (P06756 31-1048, chain 1 of 2): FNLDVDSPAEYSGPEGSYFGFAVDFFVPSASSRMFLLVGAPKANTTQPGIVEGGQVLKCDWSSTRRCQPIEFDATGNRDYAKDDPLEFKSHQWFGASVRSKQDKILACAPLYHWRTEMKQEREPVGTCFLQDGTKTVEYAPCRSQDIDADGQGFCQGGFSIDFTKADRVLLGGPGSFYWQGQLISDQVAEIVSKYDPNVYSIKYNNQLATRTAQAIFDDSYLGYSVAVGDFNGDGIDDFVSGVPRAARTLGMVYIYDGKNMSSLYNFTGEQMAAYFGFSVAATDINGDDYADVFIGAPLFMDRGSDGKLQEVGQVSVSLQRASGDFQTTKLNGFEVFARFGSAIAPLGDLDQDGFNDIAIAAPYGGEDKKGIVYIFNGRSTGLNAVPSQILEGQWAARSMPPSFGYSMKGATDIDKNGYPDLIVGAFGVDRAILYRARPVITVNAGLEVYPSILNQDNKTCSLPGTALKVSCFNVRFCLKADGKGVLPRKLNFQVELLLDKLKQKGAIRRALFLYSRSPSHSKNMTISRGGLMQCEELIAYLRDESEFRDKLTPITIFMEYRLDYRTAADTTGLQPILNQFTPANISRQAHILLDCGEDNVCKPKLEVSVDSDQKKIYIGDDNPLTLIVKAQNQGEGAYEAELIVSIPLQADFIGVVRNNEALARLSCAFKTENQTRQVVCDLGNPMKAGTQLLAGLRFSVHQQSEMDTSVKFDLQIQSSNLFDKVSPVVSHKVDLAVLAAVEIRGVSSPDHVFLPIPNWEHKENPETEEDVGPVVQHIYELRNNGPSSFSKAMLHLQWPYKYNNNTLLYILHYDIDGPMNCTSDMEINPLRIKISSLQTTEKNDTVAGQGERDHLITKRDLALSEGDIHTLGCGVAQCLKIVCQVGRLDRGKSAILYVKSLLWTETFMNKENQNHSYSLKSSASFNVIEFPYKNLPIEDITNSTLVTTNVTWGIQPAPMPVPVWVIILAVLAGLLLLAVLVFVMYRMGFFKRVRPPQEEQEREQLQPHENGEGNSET
Chain of UniProt P06756 (P05106 27-788, chain 2 of 2, further chain): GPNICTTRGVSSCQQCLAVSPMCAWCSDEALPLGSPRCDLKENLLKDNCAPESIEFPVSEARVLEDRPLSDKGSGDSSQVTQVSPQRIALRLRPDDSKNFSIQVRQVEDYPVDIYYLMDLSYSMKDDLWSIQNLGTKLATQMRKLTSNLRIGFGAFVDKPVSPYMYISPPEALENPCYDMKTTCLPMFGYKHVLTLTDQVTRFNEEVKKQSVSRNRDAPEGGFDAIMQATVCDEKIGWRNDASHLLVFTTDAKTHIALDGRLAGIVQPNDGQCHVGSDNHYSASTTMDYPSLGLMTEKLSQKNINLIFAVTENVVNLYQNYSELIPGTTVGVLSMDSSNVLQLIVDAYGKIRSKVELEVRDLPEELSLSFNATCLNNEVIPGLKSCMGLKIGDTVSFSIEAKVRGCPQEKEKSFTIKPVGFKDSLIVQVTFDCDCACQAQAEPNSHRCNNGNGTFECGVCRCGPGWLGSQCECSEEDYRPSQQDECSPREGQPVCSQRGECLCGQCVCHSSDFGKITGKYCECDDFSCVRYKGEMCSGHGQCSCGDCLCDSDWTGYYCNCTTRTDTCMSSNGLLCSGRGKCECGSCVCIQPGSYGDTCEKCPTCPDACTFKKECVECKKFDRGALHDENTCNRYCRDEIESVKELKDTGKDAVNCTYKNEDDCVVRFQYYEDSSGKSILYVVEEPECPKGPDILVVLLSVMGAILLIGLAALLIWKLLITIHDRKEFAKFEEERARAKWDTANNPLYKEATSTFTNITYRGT

cellular uptake in U87MG cells at 200 nM 700DX (fluorescence intensity after 7 h), fold over cells incubated with 700DX-PEG-cRGD: 2.5 times
cellular uptake in U87MG cells at 200 nM 700DX (fluorescence intensity after 7 h), fold over cells incubated with free 700DX: 4.5 times
Substance: 700DX-PEG-PGlu-cRGD15 (peptide)
